Results taken from PMC5750328, “Study on oligomerization of glutamate decarboxylase from Lactobacillus brevis using asymmetrical flow field-flow fractionation (AF4) with light scattering techniques” (Analytical and Bioanalytical Chemistry, 2017).

Experiments:
[1] = molecular target: the molecule itself; test: asymmetrical flow field-flow fractionation with UV, MALS and dRI detection (AF4-UV-MALS-dRI); self-association; carrier liquid 10 mM citrate-phosphate buffer pH 6, room temperature; relative amounts from deconvoluted UV fractograms at 280 nm
[2] = molecular target: the molecule itself; test: asymmetrical flow field-flow fractionation with UV, MALS and dRI detection (AF4-UV-MALS-dRI); self-association; carrier liquid 10 mM citrate-phosphate buffer pH 8, room temperature; relative amounts from deconvoluted UV fractograms at 280 nm

B1: glutamate decarboxylase (LbGadB) from Lactobacillus brevis DSM 1269, recombinant (enzyme, UniProt A9ZM78 1-480, looked up)
chain: MMNKNDQETQQMINNVDLEKTFLGSVEAGQSLPTYTLPDDPMAPDVAAQLVEHYRLNEAKANQNLATFCTTQMEPQADELMKNALNTNAIDKSEYPKTAAMENYCVSMIAHLWGIPDNEKIYDDFIGTSTVGSSEGCMLGGLALLHSWKHRAKAAGFDIEDLHSHKPNLVIMSGYQVVWEKFCTYWNVEMRQVPINGDQVSLDMDHVMDYVDENTIGIIGIEGITYTGSVDDIQTLDNLVTEYNKTATMPVRIHVDAAFGGLFAPFVDGFNPWDFRLKNVVSINVSGHKYGMVYPGLGWIVWRHDTADILPAEMRFQVPYLGKTVDSIAINFSHSGAHISAQYYNFIRFGLSGYKTIMQNVRKVSLKLTAALKTYGIFDILVDGSQLPINCWKLADDAPVGWTLYDLESELAKYGWQVPAYPLPKNRDDVTISRIVVRPSMTMTIADDFLDDLKLAIDGLNHTFGVTTTVDQDNKTTVRS
notes: glutamate decarboxylase LbGadB of Lactobacillus brevis DSM 1269; gene amplified from genomic DNA with a forward primer that holds the ATG (NdeI site) and a reverse primer with an XhoI site, cloned in pET21b; gene deposited as GenBank KX417371; Oligomeric state depends on pH: dimer at pH 7-8, hexamer at pH 6, so copies is left empty; the whole gene appears to have been cloned; Cloning NdeI/XhoI in …
stoichiometry N [1]: 6
stoichiometry N [2]: 2
